Target: native human thyroglobulin (human) (UniProt P01266)
Test: cryo-EM structure; hTG at 2 mg/mL in 25 mM Tris-HCl pH 7.5, 150 mM NaCl, sodium azide; plunge frozen; C2 symmetry imposed; composite map at 3.2 Å

native human thyroglobulin, P01266 20-2768
stoichiometry N: 2
